Laboratory results as given in patent US20110275702.

These sequences were tested on Ramos cell surface target (unidentified; human B-cell leukemia cells) (assay: competition). Conditions: competition with FITC-labeled monomer on target cells, flow cytometry.

| Sequence | IC50 [nM] |
| --- | --- |
| TAGGCAGTGGTTTGACGTCCGCATGTTGGGAATAGCCACGCCT / TAGGCAGTGGTTTGACGTCCGCATGTTGGGAATAGCCACGCCT / TAGGCAGTGGTTTGACGTCCGCATGTTGGGAATAGCCACGCCT / TAGGCAGTGGTTTGACGTCCGCATGTTGGGAATAGCCACGCCT [rigid tetramer of SEQ 3 aptamer] | 11.6 |
| TAGGCAGTGGTTTGACGTCCGCATGTTGGGAATAGCCACGCCT / TAGGCAGTGGTTTGACGTCCGCATGTTGGGAATAGCCACGCCT / TAGGCAGTGGTTTGACGTCCGCATGTTGGGAATAGCCACGCCT [flexible trimer of SEQ 3 aptamer] | 27.8 |
| TAGGCAGTGGTTTGACGTCCGCATGTTGGGAATAGCCACGCCT / TAGGCAGTGGTTTGACGTCCGCATGTTGGGAATAGCCACGCCT / TAGGCAGTGGTTTGACGTCCGCATGTTGGGAATAGCCACGCCT [rigid trimer of SEQ 3 aptamer] | 20.8 |
| TAGGCAGTGGTTTGACGTCCGCATGTTGGGAATAGCCACGCCT / TAGGCAGTGGTTTGACGTCCGCATGTTGGGAATAGCCACGCCT [flexible dimer of SEQ 3 aptamer] | 33 |
| TAGGCAGTGGTTTGACGTCCGCATGTTGGGAATAGCCACGCCT / TAGGCAGTGGTTTGACGTCCGCATGTTGGGAATAGCCACGCCT [rigid dimer of SEQ 3 aptamer] | 22.5 |

Same assay, conditions: unlabeled monomer vs FITC-labeled monomer on target cells, flow cytometry

| Sequence | IC50 [nM] |
| --- | --- |
| TAGGCAGTGGTTTGACGTCCGCATGTTGGGAATAGCCACGCCT [Ramos-binding ssDNA aptamer monomer] | 400 |
